The target of series [1] is amino-terminal acidic domain of TRF1 fused to LexA (LexAd68-C) (human) (UniProt P54274). Description: cell-based or functional assay.
For series [2], the target named is T1, GAD-tankyrase hybrid containing 10 internal ANK repeats (9-19) (TR1L-12) (human, UniProt O95271 436-797).
T1 construct: the construct holds only ANK repeats 9-19; also called 10-ANK repeat domain of tankyrase
T1 sequence: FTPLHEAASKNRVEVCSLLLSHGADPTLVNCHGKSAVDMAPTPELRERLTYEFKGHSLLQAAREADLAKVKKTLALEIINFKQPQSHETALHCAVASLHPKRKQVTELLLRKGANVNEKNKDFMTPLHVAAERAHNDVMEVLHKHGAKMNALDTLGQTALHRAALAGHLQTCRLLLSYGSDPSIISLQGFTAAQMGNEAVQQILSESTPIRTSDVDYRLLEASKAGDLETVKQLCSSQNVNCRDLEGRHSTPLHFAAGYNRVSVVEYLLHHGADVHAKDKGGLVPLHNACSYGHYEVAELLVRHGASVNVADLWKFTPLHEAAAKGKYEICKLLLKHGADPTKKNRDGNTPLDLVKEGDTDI
Description: yeast two-hybrid, β-galactosidase; LexA without TRF1 sequences. As to the method:
TR1L-4 and TR1L-12 were isolated from a human liver two-hybrid cDNA library (Clontech) created in pGad10. The library was screened with human full length TRF1 cDNA fused to LexA (LexA-TRF1) [Bianchi et al., EMBO J., 16:1785-1794 (1997)] in the yeast strain L40 as described [Hollenberg et al., Mol. Cell Biol., 15:3813-3822 (1995)]. Two-hybrid analysis was performed as described by Bianchi et al. [EMBO J., 16:1785-1794 (1997)]. β-galactosidase assays for the two-hybrid analysis was performed as described by Bianchi et al. [EMBO J., 16:1785-1794 (1997)].
Two-hybrid analysis was used to determine the interacting domains between tankyrase and TRF1. […] To determine the tankyrase-interacting domain in TRF1, two-hybrid analysis was performed with the 10-ANK repeat domain of TR1L-12 fused to the GAL4 activation domain (GAD-tankyrase) and full-length and deletion constructs of TRF1 fused to LexA. […] As observed previously, the amino-terminal acidic domain of TFR1 (LexAd68-C) activated transcription even in the absence of tankyrase sequences in the GAD fusion partner. […] Deletion of the acidic domain of TRF1 (ΔN66-LexA) abolished the interaction with GAD-tankyrase.

The target in series [3] is T2, FLAG-tankyrase (encoding amino acids 2-1327 of SEQ ID NO:2) (human, UniProt O95271 2-1327).
T2 construct: Expressed by transient transfection in HeLaI cells; also called exogenous tankyrase; transfected tankyrase
T2 sequence: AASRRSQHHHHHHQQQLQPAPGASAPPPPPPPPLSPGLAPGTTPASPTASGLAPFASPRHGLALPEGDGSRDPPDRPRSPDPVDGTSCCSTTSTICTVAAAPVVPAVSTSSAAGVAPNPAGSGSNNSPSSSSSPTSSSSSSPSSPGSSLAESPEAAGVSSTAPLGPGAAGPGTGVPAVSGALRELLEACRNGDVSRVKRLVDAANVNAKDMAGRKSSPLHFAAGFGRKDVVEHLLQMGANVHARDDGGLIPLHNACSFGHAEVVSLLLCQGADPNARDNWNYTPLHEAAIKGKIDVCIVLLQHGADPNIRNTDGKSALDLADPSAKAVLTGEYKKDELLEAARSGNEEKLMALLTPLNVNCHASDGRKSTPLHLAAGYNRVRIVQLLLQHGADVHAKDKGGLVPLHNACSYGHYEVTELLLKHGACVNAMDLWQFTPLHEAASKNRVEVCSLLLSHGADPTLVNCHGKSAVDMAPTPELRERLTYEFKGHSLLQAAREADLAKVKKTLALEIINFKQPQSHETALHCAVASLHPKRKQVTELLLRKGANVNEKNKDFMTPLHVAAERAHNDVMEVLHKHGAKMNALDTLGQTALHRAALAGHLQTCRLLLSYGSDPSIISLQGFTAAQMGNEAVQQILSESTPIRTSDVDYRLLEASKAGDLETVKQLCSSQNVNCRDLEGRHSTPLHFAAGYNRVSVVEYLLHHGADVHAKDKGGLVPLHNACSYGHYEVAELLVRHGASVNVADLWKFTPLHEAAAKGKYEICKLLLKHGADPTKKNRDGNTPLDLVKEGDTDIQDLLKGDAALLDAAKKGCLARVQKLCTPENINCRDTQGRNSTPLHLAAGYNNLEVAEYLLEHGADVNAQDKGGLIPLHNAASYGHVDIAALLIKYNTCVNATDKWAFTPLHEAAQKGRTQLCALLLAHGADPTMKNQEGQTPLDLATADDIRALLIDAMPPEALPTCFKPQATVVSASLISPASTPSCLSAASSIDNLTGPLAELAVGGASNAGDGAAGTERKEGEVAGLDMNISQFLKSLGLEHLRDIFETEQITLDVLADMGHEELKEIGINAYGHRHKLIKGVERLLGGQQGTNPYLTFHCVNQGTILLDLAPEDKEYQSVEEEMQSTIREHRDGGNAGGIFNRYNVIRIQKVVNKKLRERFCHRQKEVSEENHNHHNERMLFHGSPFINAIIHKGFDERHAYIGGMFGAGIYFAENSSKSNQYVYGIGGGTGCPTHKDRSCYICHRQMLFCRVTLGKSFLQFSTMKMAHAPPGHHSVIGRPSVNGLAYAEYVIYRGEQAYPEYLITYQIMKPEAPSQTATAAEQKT
Description: indirect immunofluorescence of co-transfected HeLaI cells (co-localization, nuclear translocation).

Series [4] concerns the target T3, TRF2 (telomeric repeat binding factor 2), Q15554.
T3 chain: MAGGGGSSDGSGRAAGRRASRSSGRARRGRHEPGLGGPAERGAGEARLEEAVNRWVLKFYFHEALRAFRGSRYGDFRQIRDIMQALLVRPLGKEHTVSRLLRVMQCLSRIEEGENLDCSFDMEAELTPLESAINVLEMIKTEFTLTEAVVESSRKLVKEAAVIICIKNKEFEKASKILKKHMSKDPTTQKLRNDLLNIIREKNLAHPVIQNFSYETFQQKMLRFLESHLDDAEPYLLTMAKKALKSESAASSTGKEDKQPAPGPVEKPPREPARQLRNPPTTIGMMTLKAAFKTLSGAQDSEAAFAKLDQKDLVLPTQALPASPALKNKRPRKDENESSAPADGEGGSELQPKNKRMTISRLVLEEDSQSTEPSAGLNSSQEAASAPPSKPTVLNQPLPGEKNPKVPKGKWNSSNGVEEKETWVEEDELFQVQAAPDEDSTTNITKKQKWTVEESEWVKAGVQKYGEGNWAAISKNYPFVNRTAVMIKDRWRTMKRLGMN

Series [5] deals with T4, baculovirus-derived TRF1, P54274.
T4 chain: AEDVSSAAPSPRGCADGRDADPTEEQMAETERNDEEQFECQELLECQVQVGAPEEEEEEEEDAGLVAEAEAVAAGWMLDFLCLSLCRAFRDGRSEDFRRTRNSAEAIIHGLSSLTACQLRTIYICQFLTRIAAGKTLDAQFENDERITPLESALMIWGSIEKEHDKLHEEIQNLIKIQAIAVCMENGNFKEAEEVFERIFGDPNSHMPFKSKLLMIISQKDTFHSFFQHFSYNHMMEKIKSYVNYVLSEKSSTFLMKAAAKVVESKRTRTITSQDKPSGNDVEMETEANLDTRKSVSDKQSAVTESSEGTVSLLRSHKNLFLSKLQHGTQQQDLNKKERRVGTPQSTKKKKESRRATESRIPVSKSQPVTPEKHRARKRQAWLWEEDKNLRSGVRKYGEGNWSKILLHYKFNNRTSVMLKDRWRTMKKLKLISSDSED

These results are taken from patent US20020076795A1, “Novel TRF1 binding protein, methods of use thereof” (published 2002).

As for “GAD-tankyrase hybrid containing 10 internal ANK repeats (9-19) (TR1L-12) (from UniProt O95271 436-797)”, the β-galactosidase levels (two-hybrid) in series [1] turned out to be 50.4 units.

B1: LexA (alone) (other, UniProt P0A7C2 1-202, looked up)
chain: MKALTARQQEVFDLIRDHISQTGMPPTRAEIAQRLGFRSPNAAEEHLKALARKGVIEIVSGASRGIRLLQEEEEGLPLVGRVAAGEPLLAQQHIEGHYQVDPSLFKPNADFLLRVSGMSMKDIGIMDGDLLAVHKTQDVRNGQVVVARIDDEVTVKRLKKQGNKVELLPENSEFKPIVVDLRQQSFTIEGLAVGVIRNGDWL
notes: Control
Regarding B1, the binding result in series [2] is recorded as “no binding”.

B2: human TRF1 (telomeric repeat binding factor 1), expressed from pcDNA3-hTRF1 in HeLaI cells (other, UniProt P54274 1-439, looked up)
chain: MAEDVSSAAPSPRGCADGRDADPTEEQMAETERNDEEQFECQELLECQVQVGAPEEEEEEEEDAGLVAEAEAVAAGWMLDFLCLSLCRAFRDGRSEDFRRTRNSAEAIIHGLSSLTACQLRTIYICQFLTRIAAGKTLDAQFENDERITPLESALMIWGSIEKEHDKLHEEIQNLIKIQAIAVCMENGNFKEAEEVFERIFGDPNSHMPFKSKLLMIISQKDTFHSFFQHFSYNHMMEKIKSYVNYVLSEKSSTFLMKAAAKVVESKRTRTITSQDKPSGNDVEMETEANLDTRKSVSDKQSAVTESSEGTVSLLRSHKNLFLSKLQHGTQQQDLNKKERRVGTPQSTKKKKESRRATESRIPVSKSQPVTPEKHRARKRQAWLWEEDKNLRSGVRKYGEGNWSKILLHYKFNNRTSVMLKDRWRTMKKLKLISSDSED
For B2, the binding result in series [3] is given as “binds”.

B3: baculovirus-derived N-terminally [His]6-tagged fusion protein of human tankyrase (protein)
chain: MAASRRSQHHHHHHQQQLQPAPGASAPPPPPPPPLSPGLAPGTTPASPTASGLAPFASPRHGLALPEGDGSRDPPDRPRSPDPVDGTSCCSTTSTICTVAAAPVVPAVSTSSAAGVAPNPAGSGSNNSPSSSSSPTSSSSSSPSSPGSSLAESPEAAGVSSTAPLGPGAAGPGTGVPAVSGALRELLEACRNGDVSRVKRLVDAANVNAKDMAGRKSSPLHFAAGFGRKDVVEHLLQMGANVHARDDGGLIPLHNACSFGHAEVVSLLLCQGADPNARDNWNYTPLHEAAIKGKIDVCIVLLQHGADPNIRNTDGKSALDLADPSAKAVLTGEYKKDELLEAARSGNEEKLMALLTPLNVNCHASDGRKSTPLHLAAGYNRVRIVQLLLQHGADVHAKDKGGLVPLHNACSYGHYEVTELLLKHGACVNAMDLWQFTPLHEAASKNRVEVCSLLLSHGADPTLVNCHGKSAVDMAPTPELRERLTYEFKGHSLLQAAREADLAKVKKTLALEIINFKQPQSHETALHCAVASLHPKRKQVTELLLRKGANVNEKNKDFMTPLHVAAERAHNDVMEVLHKHGAKMNALDTLGQTALHRAALAGHLQTCRLLLSYGSDPSIISLQGFTAAQMGNEAVQQILSESTPIRTSDVDYRLLEASKAGDLETVKQLCSSQNVNCRDLEGRHSTPLHFAAGYNRVSVVEYLLHHGADVHAKDKGGLVPLHNACSYGHYEVAELLVRHGASVNVADLWKFTPLHEAAAKGKYEICKLLLKHGADPTKKNRDGNTPLDLVKEGDTDIQDLLKGDAALLDAAKKGCLARVQKLCTPENINCRDTQGRNSTPLHLAAGYNNLEVAEYLLEHGADVNAQDKGGLIPLHNAASYGHVDIAALLIKYNTCVNATDKWAFTPLHEAAQKGRTQLCALLLAHGADPTMKNQEGQTPLDLATADDIRALLIDAMPPEALPTCFKPQATVVSASLISPASTPSCLSAASSIDNLTGPLAELAVGGASNAGDGAAGTERKEGEVAGLDMNISQFLKSLGLEHLRDIFETEQITLDVLADMGHEELKEIGINAYGHRHKLIKGVERLLGGQQGTNPYLTFHCVNQGTILLDLAPEDKEYQSVEEEMQSTIREHRDGGNAGGIFNRYNVIRIQKVVNKKLRERFCHRQKEVSEENHNHHNERMLFHGSPFINAIIHKGFDERHAYIGGMFGAGIYFAENSSKSNQYVYGIGGGTGCPTHKDRSCYICHRQMLFCRVTLGKSFLQFSTMKMAHAPPGHHSVIGRPSVNGLAYAEYVIYRGEQAYPEYLITYQIMKPEAPSQTATAAEQKT
Regarding B3, the “ADP-ribosylation (PARP assay)” value in series [4] was “TRF2 is not a substrate for modification in vitro”. Also, the “ADP-ribosylation of TRF1 (PARP assay with [32P]NAD+)” value in series [5] is given as “Tankyrase also has the ability to modify TRF1”.
